Patent US9144594B2, “Cathepsin L mediated diseases and associated methods and products” (University of Miami, priority 2005, dated 2015)
Changes are numbered by the printed parent chain. Numbers in names are those of the source.

B1: dynK44A: dominant-negative dynamin mutant that cannot bind GTP (protein, UniProt Q05193 1-864, looked up, variant K44A)
Dynamin-1: MGNRGMEDLIPLVNRLQDAFSAIGQNADLDLPQIAVVGGQSAGASSVLENFVGRDFLPRGSGIVTRRPLVLQLVNATTEYAEFLHCKGKKFTDFEEVRLEIEAETDRVTGTNKGISPVPINLRVYSPHVLNLTLVDLPGMTKVPVGDQPPDIEFQIRDMLMQFVTKENCLILAVSPANSDLANSDALKVAKEVDPQGQRTIGVITKLDLMDEGTDARDVLENKLLPLRRGYIGVVNRSQKDIDGKKDITAALAAERKFFLSHPSYRHLADRMGTPYLQKVLNQQLTNHIRDTLPGLRNKLQSQLLSIEKEVEEYKNFRPDDPARKTKALLQMVQQFAVDFEKRIEGSGDQIDTYELSGGARINRIFHERFPFELVKMEFDEKELRREISYAIKNIHGIRTGLFTPDMAFETIVKKQVKKIREPCLKCVDMVISELISTVRQCTKKLQQYPRLREEMERIVTTHIREREGRTKEQVMLLIDIELAYMNTNHEDFIGFANAQQRSNQMNKKKTSGNQDEILVIRKGWLTINNIGIMKGGSKEYWFVLTAENLSWYKDDEEKEKKYMLSVDNLKLRDVEKGFMSSKHIFALFNTEQRNVYKDYRQLELACETQEEVDSWKASFLRAGVYPERVGDKEKASETEENGSDSFMHSMDPQLERQVETIRNLVDSYMAIVNKTVRDLMPKTIMHLMINNTKEFIFSELLANLYSCGDQNTLMEESAEQAQRRDEMLRMYHALKEALSIIGDINTTTVSTPMPPPVDDSWLQVQSVPAGRRSPTSSPTPQRRAPAVPPARPGSRGPAPGPPPAGSALGGAPPVPSRPGASPDPFGPPPQVPSRPNRAPPGVPSRSGQASPSRPESPRPPFDL
B2: dynK694A: dominant activator dynamin mutant impaired in self-assembly (protein)
chain: B1 Dynamin-1 with A44K, K694A
B3: dynR725A: dynamin mutant (SEQ ID NO.4) with impaired GTP hydrolysis capacity (protein, listed as Homo sapiens)
chain: B1 Dynamin-1 with A44K, R725A
B4: dynL356Q, G358V: dynamin mutant (SEQ ID NO.3) not recognized by cathepsin L; ELSGGA mutated to EQSVGA (protein, listed as Homo sapiens)
chain: B1 Dynamin-1 with A44K, L356Q, G358V

Tests used:
CatL = assay: Dynamin p40 fragment in kidney extracts after gene delivery and LPS injection; format: in vivo, mouse; conditions: LPS injected at the time of gene delivery
Description: Next the cleavage pattern of dyn1 in kidney extracts following LPS injection was examined. Kidney cytosols were probed with antibody against the GTPase domain of dynamin, which detects p40. […] Western blotting also detected a dynamin fragment of ˜55 kD. As in cultured podocytes, the presence of this fragment was LPS- and CatL-independent (FIGS. 20B, lane 5 and 20C, lanes 1 and 2), further supporting the idea that it is generated by other proteases during tissue preparation.
Four mice kidneys were homogenized in buffer containing 20 mM HEPES pH 7.5, 100 mM NaCl, 1 mM MgCl2, 1 mM PMSF, proteinase inhibitors, calpain inhibitor (Calbiochem, San Diego, Calif.) and E-64d using dounce homogenizer. Subsequently, cytosol was centrifuged for 10 min at 7000 rpm. Proteins were solubilized by 1% Triton X, 1 h at 4° C., before it was spun at 50,000 rpm for 1 h.
CatL plasmids encoding short and long CatL (Goulet et al., Biol Chem 387, 1285-1293 (2004)), Dyn1 plasmids (pcDNA-driven) or p2.5 Podocin-driven (Moeller et al., Genesis 35, 39-42 (2003)) were introduced into mice (n>10, each construct) using the TransIT in vivo gene delivery system according to the manufacturer's instruction (Mirus Bio Corporation, Madison, Wis.). 10 and 24 h after gene delivery, proteinuria was assessed by Multistix 8 SG strips (Bayer Corporation, Elkhart, Ind.), and Bradford protein assay (Sigma, Saint Louis, Mo.). From the same urines the protein creatinine ratio was determined with Albuwell M and Creatinine Companion protein creatinine ELISA kits (Exocell Inc., Philadelphia, Pa.).

[1] = test system: dynamin-dynamin interactions; assay: FLIM analysis of dynamin-dynamin interactions (self-assembly) in podocytes; format: cell-based, mouse; conditions: in ps
Method in brief: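 Dynamin overexpressed in podocytes by adenovirus. Fixed cells stained with equal amounts of anti-dynamin monoclonal antibodies conjugated to Alexa-488 (donor) or Alexa-568 (acceptor). Self-assembly scored by FRET-shortened Alexa-488 fluorescence lifetime (acceptor within ≈100 Å).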

[2] = Table 1, donor GTPase-Alexa488, acceptor Hudy1-Alexa568, podocytes overexpressing the dynamin variant
[3] = Table 4, donor GTPase-a488, acceptor Hudy1-a568

CatL, sequence (P06797 114-333 limits assumed): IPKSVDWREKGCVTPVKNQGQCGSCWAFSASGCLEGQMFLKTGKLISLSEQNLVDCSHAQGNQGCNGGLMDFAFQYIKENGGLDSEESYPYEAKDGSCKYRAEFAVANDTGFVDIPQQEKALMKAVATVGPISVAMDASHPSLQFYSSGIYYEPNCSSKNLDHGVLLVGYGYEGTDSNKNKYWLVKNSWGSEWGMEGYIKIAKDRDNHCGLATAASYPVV

| Molecule | generation of p40 in kidney extracts, in words (CatL) | Mean Lifetime (γ1) [1, 2] | Mean Lifetime (γ1) ([1]; Table 4, donor GTPase-a488, acceptor GTPase-a568) | Mean Lifetime (γ1) [1, 3] |
| --- | --- | --- | --- | --- |
| dynWT: wild type dynamin overexpressed by adenovirus or delivered as dynamin 1 cDNA | generation of p40 | 2212 ± 65 | 2423 ± 46 | 2254 ± 60 |
| B1 | – | – | – | 2515 ± 43 |
| B2 | – | – | – | 2408 ± 40 |
| B3 | did not result in generation of p40 | 2408 ± 128 | – | – |
| B4 | not generated | – | – | – |
